In PMC12014896 (2025):
Residue numbers refer to the chain shown, from its start.

B1: COVIC-56 (antibody)
chain 1: not shown
chain 2: QVQLQESGGGLVQAGGSLRLSCAASGRTFSEYAMGWFRQAPGKEREFVATISWSGGSTYYTDSVKGRFTISRDNAKNTVYLQMNSLKPDDTAVYYCAAAGLGTVVSEWDYDYDYWGQGTQVTVSSGGGGSGGGGSKRTVAAPSVFIFPPSDEQLKSGTASVVCLLNNFYPREAKVQWKVDNALQSGNSQESVTEQDSKDSTYSLSSTLTLSKADYEKHKVYACEVTHQGLSSPVTKSFNRGEC
B2: COVIC-335 (antibody, V domains shown)
VH: QVQLVESGGGVVQPGRSLRLSCAASGFTFSRYGMHWVRQAPGKGLEWVALISSGGSNKYYADSVKGRFTISRDNSKNTLYLEMNSLRAEDTAVYYCAKDAIYDYIWGAYRENWFDPWGQGTLVTVSS
VL: DIQMTQSPSSLSASVGDRVTITCRASQSISNYLNWYQQKPGKAPNLLIYAASSLQSGVPSRFSGSGSGTDFTLTISSLQPEDFATYYCQQTSSPPLTFGQGTKVEIK
B3: COVIC-96 (antibody, V domains shown)
VH: QVQLVQSGAEVKKPGSSVKVSCKASGGTFSTSTISWVRQAPGQGLEWMGGIIPLFGSPNYAQKFQGRVTITADESTSTAYMELSSLRFEDTAVYYCARLGQWDLLPRWGQGTLVTVSS
VL: EIVLTQSPGTLSLSPGERATLSCRASQSVSSSYLAWYQQKPGQAPRLLIYGASSRASGTPDRFSGRGSGTDFTLTISRLEPEDFAVYYCQQYGSSYTFGQGTKLEIK
B4: COVIC-303 (antibody, V domains shown)
VH: QVTLKESGPVLVKPTETLTLTCTVSGFSLSNARMGVSWIRQPPGKALEWLAHIFSNGEKSYSTSLKSRLTISKDTSKSQVVLTMTNMDPVDTATYYCARTLDYYDSSGYLVGGAFDIWGQGTMVTVSS
VL: QPGLTQPPSVSLAPGQTARITCGGNNIGSKSVHWYQQKPGQAPVLVVYDDSDRPSGIPERFSGSNAGNTATLTISRVEAGDEADYYCQVWDSRSDQYVFGTRTKLTVLG
B5: COVIC-28 (antibody, V domains shown)
VH: QVQLVQSGAEVKKPGASVKVSCKASGYTFTSYYMHWVRQAPGQGLEWMGIINSSGGSTSYAQKFQGRVTMTRDTSTSTVYMELSSLRSEDTAVYYCARPPRNYYDRSGYYQRAEYFQHWGQGTLVTVSS
VL: DIQLTQSPSSLSASVGDRVTITCQASQDISNYLNWYQQRPGKAPKLLIYDASNLETGVPSRFSGSGSGTDFTFTISSLQPEDIATYYCQQYDNPPLTFGGGTKLEIK
B6: COVIC-334 (antibody, V domains shown)
VH: QMQLVQSGPEVKKPGTSVKVSCKASGFTFSSSAVQWVRQARGQGLEWIGWIVVGSGNANYAQKLQERVSITRDMSTSTAYMELSSLRPEDTAVYYCAAPHCSRTICHDGFDMWGQGTMVTVSS
VL: EIVLTQSPGTLSLSPGERATLSCRASQSVRSSYLAWYQQKPGQAPRLLMFVASSRATGIPDRFSGSGSGTDFTLTISRLEPEDFAVYYCQQYDTSPWTFGQGTKVEIK
B7: COVIC-300 (antibody, V domains shown)
VH: EVQLVESGGGLIQPGGSLRLSCAASGFIVSSNYMSWVRQAPGKGLEWVSVIYSGGITYFADSVKGRFTISRDISKNTLYLQMNSLRAEDTAVYYCARDRRLPHYYYGLDVWGQGTTVTVSS
VL: QSVLTQPASVSGSPGQSITISCTGTSSDVGGYNYVSWYQQHPGKAPTLIIYEVTSRPSGVSNRFSGSKSGNTASLTISGLQAEDEADYYCSSYTTSNTLGGVFGTGTKVTVL
B8: COVIC-263 (antibody, V domains shown)
VH: QVQLQESGPRLVKPSETLSLTCTVSGGSISGSNYFWGWIRQPPGKGLEWIGTIYYGGSTYYNPSLKSRVTISVDTSENQFSLKLSSVTAADTAVYYCANLAWLRGYFDYWGQGTLVTVSS
VL: NFMLTQPHSVSESPGKTVTISCTRSSGSIASNYVQWYQQRPGSAPTTVIYEDNQRPSGVPDRFSGSIDSSSNSVSLTISGLKTEDEADYYCQSYDSSNWVFGGGTKLTVLG
B9: COVIC-298 (antibody, V domains shown)
VH: EVQLVQSGAEVKKPGESLKISCQGSGFSFSNYWIGWVRQMPGKGLEWMGIIYPDDSDTRYSPSFQGQVTISADKSISTAFLQWSSLKASDTAMYYCATRTGWTNDAFDIWGQGTMVTVSS
VL: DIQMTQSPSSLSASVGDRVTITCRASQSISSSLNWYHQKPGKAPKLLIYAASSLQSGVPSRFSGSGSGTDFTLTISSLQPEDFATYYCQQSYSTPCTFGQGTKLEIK
B10: COVIC-338 (antibody, V domains shown)
VH: EVQLVESGGGLVQPGRSLRLSCAASGLTFEDYAMHWVRQPPGKGLEWVSGVSWNSGTIGYADSVKGRFTISRDNAKNSLYLHMRSLGAEDTAMYYCAKDMGGRFSFFSLENDAFDIWGQGTMVIVSS
VL: SYELTQPPSVSVSPGQTARITCSGDALPKQSTYWYQQKPGQAPVLVIYKDIERPSGIPERFSGSSSGTTVTLTISGVQAEDEADYYCQSADSSDTYVFGTGTKVTVL
B11: COVIC-147 (antibody, V domains shown)
VH: EVQLVESGGGLIQPGGSLRLSCAASGFTVSSIYMSWVRQAPGKGLEWVSIIYSRGSTDYADSVKGRFTISRDISKNTLYLQMNSLRAEDTAVYYCARDGTMVRGVHAFDIWGQGTMVTVSS
VL: DIQMTQSPPSLSASIGDRVTITCQASQDISNYLNWYQQKPGKAPKLLIYDASNLETGVPSRFSGSGSGTDFTLTISNLQPEDIVTYYCQQYDNLPSSFGQGTKLEIKR
B12: COVIC-267 (antibody, V domains shown)
VH: EVQLVESGGGLVQPGGSLRLSCTVSGFSLSSYAMSWVRQAPGKGLEWIGIIGNSGNTYYASWAKGRFTISRDNSKNTLYLQMNSLRAEDTAVYYCARNWDPDSYEYTYATNSFDPWGQGTLVTVSS
VL: DIQMTQSPSSLSASVGDRVTITCQASESISSYLAWYQQKPGKAPKLLIYRASTLESGVPSRFSGSGSGTDFTLTISSLQPEDFATYYCQCTYGSSSSGSYGNAFGGGTKVEIK
B13: COVIC-260 (antibody, V domains shown)
VH: QVQLQESGPGLVKPSETLSLTCSVSGDSISSSDYSWGWIRQPPGKGLEWIGTIYYIKNTYYNPSLRSRVTLSVDTSKNLFSLKLSSVTAADTAVYYCARERPPFDVVVVPAARPYNWFDPWGLGTLVIVSS
VL: QSVLMQPPSVSGAPGQRVTISCTGSSSNIGAGYDVHWYQQLPGTAPKLLIYGNNNRPSGVPDRFSGSKSGTSASLAITGLQADDEADYYCQSYDSSLSGSKVFGGGTKLTVLG
B14: COVIC-148 (antibody, V domains shown)
VH: QVQLVQSGAEVKKPGASVKVSCKASGYTFTSYDINWVRQATGQGLEWMGWMNPNSGNTGYAQKFQGRVTMTRDTSINTAYMELSSLRSEDTAVYFCARGGRYCSDVTCYSGEPFDYWGQGTLVTVSS
VL: EIMLTQSPDFQSVTPKEKVTITCRASQSIGSSLHWYQQKPDQSPKLLIKFASQSISGVPSRFSGSGSGTDFTLTINSLEAEDAAAYYCHQSSSLPHTFGPGTKVEIKR
B15: COVIC-359 (antibody, V domains shown)
VH: EVQLVESGGGLVQPGGSLRLSCKASGISVAPHAVTWVRQAPGKGLEWIGVIASNADTYYASWAKGRFTISRDNSKNTLYLQMNSLRAEDTAVYYCARHPGSAGYGYTYYYAMDPWGQGTLVTVSS
VL: DIQMTQSPSSLSASVGDRVTITCKASEDIRYGLNWYQQKPGKAPKLLIYGANTLEAGVPSRFSGSGSGTDYTLTISSLQPEDFATYYCQQGYSTPLTFGGGTKVEIK
B16: COVIC-361 (antibody, V domains shown)
VH: B15 VH
VL: DIQMTQSPSSLSASVGDRVTITCQASQDVKYAINWYQQKPGKAPKLLIYGTSSRGEGVPSRFSGSGSGTDYTLTISSLQPEDFATYYCQQGYVVSIFFGGGTKVEIK
B17: COVIC-94 (antibody, V domains shown)
VH: EVQLVESGGGLVQPGGSLRLSCAASGFTFSPSWMGWFRQAPGKEREFVATINEYGGRNYADSVKGRFTISADNSKNTAYLQMNSLKPEDTAVYYCARVDRDFDYWGQGTLVTVSS
B18: COVIC-301 (antibody, V domains shown)
VH: EVQLVESGGGLIQPGGSLRLSCAASGVTVSSNYMSWVRQAPGKGLEWVSIIYPGGSRFYADSVKGRFTISRDNSKNTLYLQMNSLRAEDTAVYYCAREVRGWLDPWGQGTLVTVSS
VL: DVVMTQSPSFLSASVGDRVTITCRASQGISNYLAWYQQKPGKAPKLLIYASSTLQSGVPSRFSGSGSGTEFTLTISSLQPEDFATYYCQHLNSYPHFGQGTRLEIKR
B19: COVIC-259 (antibody, V domains shown)
VH: EVQLVESGGGVVQPGRSLRLSCAASGFTFSSYAMHWVRQAPGKGLEWVAVLSYDGSNKYNADSVKGRFTISRDNSKNTLYLQMNSLRVEDTAMYYCARDGVSVTMVRGVIGPLCDYWGQGTLVTVSS
VL: not shown
B20: COVIC-185 (antibody, V domains shown)
VH: QVQLVQSGAEVKKPGASVRVSCKASGYTFTGYYMHWVRQAPGQGLEWMGWINPISDGTNYAQKFQGWVTMTRDTSISTVYMELSRLRSDDTAVYYCARGGSRCSGGNCYGWAYDAFDIWGQGTMITVSS
VL: QSALTQPASVSGSPGQSITISCTGTSSDVGGYNFVSWYQQHPGKAPKLMIYDVSKRPSGVSNRFSGSKSGNTASLTISGLQAEDEADCYCSSYTSSSTFVFGTGTKVTVL
B21: COVIC-159 (antibody, V domains shown)
VH: EVQLVESGGGLIQPGGSLRLSCAASGFTVSSNYMNWVRQAPGKGLEWVSVIYSGGSTYYADSVKGRFTISRDNSKNTLFLQMNSLRAEDSAVYYCARDLGPYGVDVWGQGTTVTVSS
VL: DIQLTQSPSFLSASVGDRVTITCWASQGISSYLAWYQQKPGKAPKLLIYAASTLQSGVPSRFSGSGSGTEFTLTISSLQPEDFATYYCQELNSYPLTFGQGTRLEIKR
B22: COVIC-157 (antibody, V domains shown)
VH: B21 VH with F79Y, A87T, S90T, G100V, P101A, V104M
VL: B21 VL with L46V, E90L, Y94N, Q100G, R103K, L104V
B23: COVIC-150 (antibody, V domains shown)
VH: B21 VH with F27V, N35S, Y58F, F79Y, S90T, G100S, P101Y, V104M
VL: B21 VL with R61K, E90Q, L96S, T97S, R103K

target: SARS-CoV-2 spike RBD (Wuhan-Hu-1) (Severe acute respiratory syndrome …, UniProt P0DTC2); assay: SPR

Q: How did the Kd turn out when B1 was run?
A: Its Kd is 94.2 nM.

Q: How did the Kd turn out when B2 was run?
A: Its Kd is 9 nM.

Q: B3 was tested. Which Kd did it give?
A: Its Kd is 92.2 nM.

Q: How did the Kd turn out when B4 was run?
A: Its Kd is 0.168 nM.

Q: B5 was tested. Which Kd did it give?
A: Its Kd is 12.3 nM.

Q: How did the Kd turn out when B6 was run?
A: Its Kd is 0.0568 nM.

Q: For B7, which Kd is on record?
A: The Kd was 1.13 nM.

Q: How did the Kd turn out when B8 was run?
A: Its Kd is 0.0861 nM.

Q: With B9 as the binder, how does the Kd read?
A: The Kd was 0.629 nM.

Q: For B10, which Kd is on record?
A: Its Kd is 0.00664 nM.

Q: With B11 as the binder, how does the Kd read?
A: The Kd was 2.3 nM.

Q: Which Kd does the source give for B12 here?
A: The Kd was 1.95 nM.

Q: B13 was tested. Which Kd did it give?
A: Its Kd is 0.0696 nM.

Q: With B14 as the binder, how does the Kd read?
A: Its Kd is 1.85 nM.

Q: With B15 as the binder, how does the Kd read?
A: Its Kd is 0.0139 nM.

Q: How did the Kd turn out when B16 was run?
A: Its Kd is 0.0241 nM.

Q: With B17 as the binder, how does the Kd read?
A: The Kd was 5.62 nM.

Q: With B18 as the binder, how does the Kd read?
A: Its Kd is 1.55 nM.

Q: B19 was tested. Which Kd did it give?
A: The Kd was 2.1 nM.

Q: B20 was tested. Which Kd did it give?
A: Its Kd is 12.3 nM.

Q: With B21 as the binder, how does the Kd read?
A: The Kd was 24.9 nM.

Q: B22 was tested. Which Kd did it give?
A: Its Kd is 6.65 nM.

Q: B23 was tested. Which Kd did it give?
A: Its Kd is 141 nM.
